Target: IL-13 (UniProt P35225)
Test: SPR

Sequence of IL-13 (P35225 35-143): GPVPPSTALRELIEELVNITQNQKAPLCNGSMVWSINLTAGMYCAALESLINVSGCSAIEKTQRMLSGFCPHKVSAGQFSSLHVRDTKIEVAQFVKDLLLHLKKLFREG

B1: Fab region of tralokinumab (Fab, V domains shown)
VH: QVQLVQSGAEVKKPGASVKVSCKASGYTFTNYGLSWVRQAPGQGLEWMGWISANNGDTNYGQEFQGRVTMTTDTSTSTAYMELRSLRSDDTAVYYCARDSSSSWARWFFDLWGRGTLVTVSS
VL: SYVLTQPPSVSVAPGKTARITCGGNIIGSKLVHWYQQKPGQAPVLVIYDDGDRPSGIPERFSGSNSGNTATLTISRVEAGDEADYYCQVWDTGSDPVVFGGGTKLTVL
- binding result: binds

Source: PMC11339910 (Journal of molecular biology, 2024)
